Source: patent US20190092871A1 (VIB VZW, published 2019)

What was measured:
[1] = target: T1, human CD20 (human, UniProt P11836 1-297); experiment: FACS, 5 ug/ml VHH on CHO-K1 cells stably expressing human CD20, FITC anti-his detection
T1 construct: The forward primer starts at codon 2; also called hCD20; CHO-K1-hCD20
T1 sequence: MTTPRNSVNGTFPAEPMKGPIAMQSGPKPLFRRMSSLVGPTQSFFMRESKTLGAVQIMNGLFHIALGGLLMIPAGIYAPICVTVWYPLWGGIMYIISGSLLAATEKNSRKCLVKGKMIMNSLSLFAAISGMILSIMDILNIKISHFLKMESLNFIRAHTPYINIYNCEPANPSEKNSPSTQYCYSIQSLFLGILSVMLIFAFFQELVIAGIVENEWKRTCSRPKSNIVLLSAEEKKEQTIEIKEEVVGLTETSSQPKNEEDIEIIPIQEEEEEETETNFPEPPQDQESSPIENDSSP
Method: (§1) To determine the binding activities of the VHHs specific for human or mouse CD20, FACS analysis was carried out. Specifically, CHO-K1 cells and CHO-K1 cells stably expressing human or mouse CD20 were incubated with 5 μg/ml of the VHHs produced in accordance with the application. A monoclonal FITC labelled anti-his antibody (Genscript #A01620) was applied as secondary stain. FACS analysis was done on a FacsCalibur flow cytometer (Becton Dickinson).

[2] = target: T2, mouse CD20 (mouse, UniProt P19437 1-291); experiment: FACS, 5 ug/ml VHH on CHO-K1 cells stably expressing mouse CD20, FITC anti-his detection
T2 construct: whole, on cells; also called mCD20; CHO-K1-mCD20
T2 sequence (looked up): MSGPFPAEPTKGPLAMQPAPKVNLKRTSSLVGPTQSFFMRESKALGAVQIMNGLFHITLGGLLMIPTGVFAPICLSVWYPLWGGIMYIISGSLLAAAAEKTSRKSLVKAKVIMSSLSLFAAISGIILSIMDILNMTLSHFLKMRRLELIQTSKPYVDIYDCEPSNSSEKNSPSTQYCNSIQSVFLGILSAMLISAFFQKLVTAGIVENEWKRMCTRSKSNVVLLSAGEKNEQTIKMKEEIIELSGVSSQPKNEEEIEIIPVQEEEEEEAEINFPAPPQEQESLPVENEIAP
Method: as §1

[3] = target: T1, human CD20; experiment: cell ELISA, crude periplasmic extract, CHO-K1 expressing human CD20 against parental CHO-K1

B1: 2HCD25 (VHH)
VHH: QVQLQESGGGLAQAGGSLRLSCAASGRTFSMGWFRQAPGKEREFVAAITYSGGSPYYASSVRGRFTISRDNAKNTVYLQMNSLKPEDTAVYYCAANPTYGSDWNAENWGQGTQVTVSS
notes: Whole entry = VHH-AAA-HA-His6 (pMECS construct); also called hCD20Nb
**Q.** Does B1 bind [1]?
**A.** binds

B2: 2HCD78 (VHH)
VHH: QVQLQESGGGLVQPGGSLRLSCAASGRTFSMGWFRQAPGKEREFVAAITYSGGSPYYASSVRGRFTISRDNAKNTVYLQMNSLKPEDTAVYYCAANPTYGSDWNAENWGQGTQVTVSS
notes: Whole entry = VHH-AAA-HA-His6 (pMECS construct)
**Q.** Does B2 bind [1]?
**A.** binds

B3: R3MCD137 (VHH)
VHH: QVQLQESGGGSVQAGGSLRLSCAASGSTFSIKAMGWYRQAPGKQRELVAAFISGRGSTKYADSVKGRFAISRDNAKNTMYLQMDSLEPEDTAVYYCYIVLPTGGGSAMDYWGEGTQVTVSS
notes: as for B2
**Q.** Does B3 bind [2]?
**A.** binds

B4: R3MCD22 (VHH)
VHH: QVQLQESGGGVVQAGGSLRLSCAASGSTFSIKAMGWYRQAPGKQRDLVAGFISGRGSAKYADSVKGRFAISRDNAKNTMYLQMDSLKPEDTAVYYCYIVLTTGGGSAMDYWGQGTQVTVSS
notes: as for B2
**Q.** Does B4 bind [2]?
**A.** binds

B5: 2HCD40 (VHH)
VHH: QVQLQESGGGLVQAGGSLRLSCAASGRTVGSYSMGWFRQAPGKEREFVAAVTWSGASPYYADSVKGRFTISRDNAKNTVYLQMNSLKPEDTAVYYCAANPTYSGGWHAEYWGQGTQVTVSS
notes: as for B2
**Q.** Does B5 bind [3]?
**A.** binds

B6: 2HCD59 (VHH)
VHH: QVQLQESGGGSEQPGGSLRLSCAASGRTVGSYSMGWFRQAPGKEREFVAAVTRSGASPYYADSVKGRFTISRDNAKNTVYLQMNSLKPEDTAVYYCAANPTYSGGWHAEYWGQGTQVTVSS
notes: as for B2
**Q.** Does B6 bind [3]?
**A.** binds

B7: 2HCD68 (VHH)
VHH: QVQLQESGGGLVQPGGSLRLSCAASRFTLDYYAIGWFRQAPGKEREFVAAVTWSGASPYYADSVKGRFTISRDNAKNTVYLQMNSLKPEDTAVYYCAANPTYSGGWHAEYWGQGTQVTVSS
notes: as for B2
**Q.** Does B7 bind [3]?
**A.** binds

B8: 2HCD88 (VHH)
VHH: QVQLQESGGGLVQAGDSLRLSCAASGRTVGSYSMGWFRQAPGKEREFVAAVTWSGASPYYADSVKGRFTISRDNAKNTVYLQMNSLKPEDTAVYYCAANPTYSGGWHAEYWGQGTQVTVSS
notes: as for B2
**Q.** Does B8 bind [3]?
**A.** binds

B9: 2HCD17 (VHH)
VHH: QVQLQESGGGLVQAGGSLRLSCAASGRTVGSYSMGWFRQAPGKEREFVAAVIWSGASPYYADSVKGRFTISRDNAKNTVYLQMNSLKPEDTAVYYCAANPTYSGGWHAEYWGQGTQVTVSS
notes: as for B2
**Q.** Does B9 bind [1]?
**A.** binds

B10: 2HCD73 (VHH)
VHH: QVQLQESGGGLVQAGGSLRLSCAASGRTFSRQSMGWFRQAPGEEREFVAVITWSGGSPYYADSVRGRFTISRDNAKNTVYLQMNSLKPEDTAVYYCAAPVSYGSQWLADYWGQGTQVTVSS
notes: as for B2
**Q.** Does B10 bind [1]?
**A.** binds

B11: 2HCD81 (VHH)
VHH: QVQLQESGGGLVQAGGSLRLSCAASGRTFSSYNMGWFRQAPGKEREFVAVISWSGGSPYYADSVKGRFTISRDNAKNTVYLQMNSLKPEDTAVYYCAAPVSYGSSWLADYWGQGTQVTVSS
notes: as for B2
**Q.** Does B11 bind [1]?
**A.** binds

B12: 2HCD43 (VHH)
VHH: QVQLQESGGGLVQPGGSLRLSCTASGFTLDYYAIGWLRQAPGKEREGVSCISSSGGSTNYADSVKGRFTISRDNAKNTVYLLMNSLKPEDTAVYYCAAERTWVSNYYCSGDGDGYDYDYWGQGTQVTVSS
notes: as for B2
**Q.** Does B12 bind [3]?
**A.** binds
